Experimental data as given in PMC10891134, “Bacteria employ lysine acetylation of transcriptional regulators to adapt gene expression to cellular metabolism” (Nature Communications, 2024).
Changes are numbered by the printed parent chain.

Key:
[1] = target: RutR AcK7 K7AcK (Escherichia coli K12?) (UniProt P0ACU2); test: SPR; conditions: ITC: 100 mM potassium phosphate pH 6.4, 150 mM NaCl, 5 mM MgCl2, 2 mM b-ME, 20 or 25 C; SPR: 100 mM potassium phosphate pH 6.4, 300 mM NaCl, 0.05% Tween20 …
[2] = target: RutR AcK7/11 K7AcK;K11AcK (Escherichia coli K12?) (UniProt P0ACU2); test: SPR; conditions: ITC: 100 mM potassium phosphate pH 6.4, 150 mM NaCl, 5 mM MgCl2, 2 mM b-ME, 20 or 25 C; SPR: 100 mM potassium phosphate pH 6.4, 300 mM NaCl, 0.05% Tween20 …
RutR AcK7/11 K7AcK;K11AcK (Escherichia coli K12?), sequence (P0ACU2 whole entry): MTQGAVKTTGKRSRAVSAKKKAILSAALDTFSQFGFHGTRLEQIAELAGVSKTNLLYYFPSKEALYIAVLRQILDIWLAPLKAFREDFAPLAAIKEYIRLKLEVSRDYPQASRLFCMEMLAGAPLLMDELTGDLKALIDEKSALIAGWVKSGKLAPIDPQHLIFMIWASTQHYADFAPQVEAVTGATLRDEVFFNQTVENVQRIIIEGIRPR

[3] = target: RutR AcK11 K11AcK (Escherichia coli K12?) (UniProt P0ACU2); test: ITC; conditions: ITC: 100 mM potassium phosphate pH 6.4, 150 mM NaCl, 5 mM MgCl2, 2 mM b-ME, 20 or 25 C; SPR: 100 mM potassium phosphate pH 6.4, 300 mM NaCl, 0.05% Tween20 …
RutR AcK11 K11AcK (Escherichia coli K12?), sequence (P0ACU2 whole entry): as above

[4] = target: RutR AcK150 K150AcK (Escherichia coli K12?) (UniProt P0ACU2); test: ITC; conditions: ITC: 100 mM potassium phosphate pH 6.4, 150 mM NaCl, 5 mM MgCl2, 2 mM b-ME, 20 or 25 C; SPR: 100 mM potassium phosphate pH 6.4, 300 mM NaCl, 0.05% Tween20 …
[5] = target: RutR AcK21 K21AcK (Escherichia coli K12?) (UniProt P0ACU2); test: ITC; conditions: ITC: 100 mM potassium phosphate pH 6.4, 150 mM NaCl, 5 mM MgCl2, 2 mM b-ME, 20 or 25 C; SPR: 100 mM potassium phosphate pH 6.4, 300 mM NaCl, 0.05% Tween20 …
[6] = target: RutR AcK62 K62AcK (Escherichia coli K12?) (UniProt P0ACU2); test: ITC; conditions: ITC: 100 mM potassium phosphate pH 6.4, 150 mM NaCl, 5 mM MgCl2, 2 mM b-ME, 20 or 25 C; SPR: 100 mM potassium phosphate pH 6.4, 300 mM NaCl, 0.05% Tween20 …
RutR AcK62 K62AcK (Escherichia coli K12?), sequence (P0ACU2 whole entry): as above

[7] = target: RutR AcK7 K7AcK (Escherichia coli K12?) (UniProt P0ACU2); test: ITC; conditions: ITC: 100 mM potassium phosphate pH 6.4, 150 mM NaCl, 5 mM MgCl2, 2 mM b-ME, 20 or 25 C; SPR: 100 mM potassium phosphate pH 6.4, 300 mM NaCl, 0.05% Tween20 …
[8] = target: RutR AcK7/11 K7AcK;K11AcK (Escherichia coli K12?) (UniProt P0ACU2); test: ITC; conditions: ITC: 100 mM potassium phosphate pH 6.4, 150 mM NaCl, 5 mM MgCl2, 2 mM b-ME, 20 or 25 C; SPR: 100 mM potassium phosphate pH 6.4, 300 mM NaCl, 0.05% Tween20 …
[9] = target: RutR AcK95 K95AcK (Escherichia coli K12?) (UniProt P0ACU2); test: ITC; conditions: ITC: 100 mM potassium phosphate pH 6.4, 150 mM NaCl, 5 mM MgCl2, 2 mM b-ME, 20 or 25 C; SPR: 100 mM potassium phosphate pH 6.4, 300 mM NaCl, 0.05% Tween20 …
RutR K7R/K11R = target: T1, RutR K7R/K11R (UniProt P0ACU2 1-212, K7R;K11R); test: ITC; ITC: 100 mM potassium phosphate pH 6.4, 150 mM NaCl, 5 mM MgCl2, 2 mM b-ME, 20 or 25 C; SPR: 100 mM potassium phosphate pH 6.4, 300 mM NaCl, 0.05% Tween20, 25 C; EMSA: 20 mM Tris-HCl pH 7.5, 100 mM KCl, 2 mM DTT, 10% glycerol, 25 nM DNA, 30 C; conditions: protein: recombinant; tags: His6; chain copies: 2; blunt
T1 sequence: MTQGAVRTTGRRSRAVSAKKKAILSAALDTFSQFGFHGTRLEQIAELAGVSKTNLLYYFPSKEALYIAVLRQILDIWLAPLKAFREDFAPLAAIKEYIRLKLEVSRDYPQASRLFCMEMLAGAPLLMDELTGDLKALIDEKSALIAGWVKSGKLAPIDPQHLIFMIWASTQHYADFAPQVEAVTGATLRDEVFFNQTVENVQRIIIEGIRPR

RutR WT = target: T2, RutR WT (UniProt P0ACU2 1-212); test: as above; conditions: protein: recombinant; tags: His6; chain copies: 2; blunt
T2 sequence: T1 sequence with R7K, R11K

RutR K52R = target: T3, RutR K52R (UniProt P0ACU2 1-212, K52R); test: as above; conditions: protein: recombinant; tags: His6; chain copies: 2; blunt
T3 sequence: T1 sequence with R7K, R11K, K52R

RutR K52Q = target: T4, RutR K52Q (UniProt P0ACU2 1-212, K52Q); test: as above; conditions: protein: recombinant; tags: His6; chain copies: 2; blunt
T4 sequence: T1 sequence with R7K, R11K, K52Q

RutR K11Q = target: T5, RutR K11Q (UniProt P0ACU2 1-212, K11Q); test: as above; conditions: protein: recombinant; tags: His6; chain copies: 2; blunt
T5 sequence: T1 sequence with R7K, R11Q

RutR K7Q = target: T6, RutR K7Q (UniProt P0ACU2 1-212, K7Q); test: as above; conditions: protein: recombinant; tags: His6; chain copies: 2; blunt
T6 sequence: T1 sequence with R7Q, R11K

RutR K7Q/K11Q = target: T7, RutR K7Q/K11Q (UniProt P0ACU2 1-212, K7Q;K11Q); test: as above; conditions: protein: recombinant; tags: His6; chain copies: 2; blunt
T7 sequence: T1 sequence with R7Q, R11Q

RutR Δ1-12 = target: T8, RutR Δ1-12 (UniProt P0ACU2 13-212, del1-12); test: EMSA; ITC: 100 mM potassium phosphate pH 6.4, 150 mM NaCl, 5 mM MgCl2, 2 mM b-ME, 20 or 25 C; SPR: 100 mM potassium phosphate pH 6.4, 300 mM NaCl, 0.05% Tween20, 25 C; EMSA: 20 mM Tris-HCl pH 7.5, 100 mM KCl, 2 mM DTT, 10% glycerol, 25 nM DNA, 30 C; conditions: protein: recombinant; tags: His6; chain copies: 2; blunt
T8 sequence: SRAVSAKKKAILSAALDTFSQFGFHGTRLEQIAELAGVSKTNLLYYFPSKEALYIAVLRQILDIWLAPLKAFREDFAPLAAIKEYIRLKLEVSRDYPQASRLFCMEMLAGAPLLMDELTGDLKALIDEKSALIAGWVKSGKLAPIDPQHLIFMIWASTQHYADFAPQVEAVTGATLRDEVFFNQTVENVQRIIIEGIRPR

[10] = target: the molecule itself; test: SEC; analytical size-exclusion chromatography of the purified RutR proteins; elution as dimer; column and buffer not given

RutR AcK7 K7AcK (Escherichia coli K12?), sequence (P0ACU2 whole entry): as the sequence (P0ACU2 whole entry) above

## GTTTTATGTGCAACTGTTTTGACCGTTTAGTCCACTTTTTACCAGATATTTTAG (double strand) [biotin-boxrutA]
[1]
  Kd: 9.06 nM
[2]
  Kd: 76.2 nM

## GTTTTAATGTAAATTTTGACCATTTGGTCCACTTTTTTCTGCTCGT (double strand) [biotin-boxcarA]
[2]
  binding signal (fold reduced affinity vs WT): 8

## GTTTTAATGTAAATTTTGACCATTTGGTCCACTTTTTTCTGCTCGT (double strand) [boxcarA]
[3]
  Kd: 82 nM
[4]
  Kd: 40 nM
[5]
  Kd: 12 nM
[6]
  Kd: 1120 nM
[7]
  Kd: 73 nM
[8]
  Kd: 300 nM
[9]
  Kd: 19 nM

## GTTTTATGTGCAACTGTTTTGACCGTTTAGTCCACTTTTTACCAGATATTTTAG (double strand) [boxrutA]
[3]
  Kd: 95 nM
[4]
  Kd: 72 nM
[5]
  Kd: 58 nM
[7]
  Kd: 94 nM
[8]
  Kd: 251 nM
[9]
  Kd: 32 nM

B1: boxcarA (dsDNA)
DNA 1: GTTTTAATGTAAATTTTGACCATTTGGTCCACTTTTTTCTGCTCGT
DNA 2: ACGAGCAGAAAAAAGTGGACCAAATGGTCAAAATTTACATTAAAAC
RutR K7R/K11R
  Kd: 17 ± 1 nM
RutR WT
  Kd: 28 ± 1 nM
RutR K52R
  Kd: 61 ± 36 nM
RutR K52Q
  Kd: 1220 ± 1130 nM
RutR K11Q
  Kd: 42 ± 16 nM
RutR K7Q
  Kd: 26 ± 12 nM
RutR K7Q/K11Q
  Kd: 153 ± 43 nM
RutR Δ1-12
  binding result: binds

B2: boxrutA (dsDNA)
DNA 1: GTTTTATGTGCAACTGTTTTGACCGTTTAGTCCACTTTTTACCAGATATTTTAG
DNA 2: CTAAAATATCTGGTAAAAAGTGGACTAAACGGTCAAAACAGTTGCACATAAAAC
RutR K7R/K11R
  Kd: 47 ± 20 nM
RutR WT
  Kd: 44 ± 21 nM
RutR K52R
  Kd: 42 ± 30 nM
RutR K52Q
  Kd: 2420 ± 961 nM
RutR K11Q
  Kd: 332 ± 179 nM
RutR K7Q
  Kd: 57 ± 20 nM
RutR K7Q/K11Q
  Kd: 540 ± 158 nM
RutR Δ1-12
  binding result: binds

B3: non-acetylated RutR (pyrimidine utilization repressor) wild type (natural protein, E. coli, UniProt P0ACU2 1-212, looked up)
chain: T1 sequence with R7K, R11K
notes: RutR, TetR-family transcriptional regulator of Escherichia coli; called full-length RutR WT; Expressed from a modified pRSFDuet-1 that carries a G to P mutation after the start Met of the tag region; No tag cleavage is described; also called RutR WT; source: E. coli BL21 (DE3), purified (Ni-NTA, SEC)
[10]
  stoichiometry N: 2

B4: RutR AcK95 (site-specifically K95-acetylated RutR) (natural protein, E. coli)
chain: T1 sequence with R7K, R11K
modifications: acetyl-lysine at 95
notes: RutR of Escherichia coli; rutR gene as in m1 with an amber stop codon at K95 for acetyl-L-lysine; Same rutR construct as m1 apart from the amber codon; constructs are in Supplementary Data 4; source: E. coli BL21 (DE3), genetic code expansion (acetyl-L-lysine at an amber codon), purified
[10]
  stoichiometry N: 2

B5: RutR AcK11 (site-specifically K11-acetylated RutR) (natural protein, E. coli)
chain: T1 sequence with R7K, R11K
modifications: acetyl-lysine at 11
notes: RutR of Escherichia coli; rutR gene as in m1 with an amber stop codon at K11 for acetyl-L-lysine; Same rutR construct as m1 apart from the amber codon; constructs are in Supplementary Data 4; source: E. coli BL21 (DE3), genetic code expansion (acetyl-L-lysine at an amber codon), purified
[10]
  stoichiometry N: 2

B6: double-acetylated RutR AcK7/11 (natural protein, E. coli)
chain: T1 sequence with R7K, R11K
modifications: acetyl-lysine at 7 and at 11
notes: RutR of Escherichia coli; rutR gene as in m1 with amber stop codons at K7 and K11 for acetyl-L-lysine; Same rutR construct as m1 apart from the amber codons; constructs are in Supplementary Data 4; also called K7- and K11-double-acetylated RutR; source: E. coli BL21 (DE3), genetic code expansion with an additional plasmid for the optimized MbtRNAopt, purified
[10]
  stoichiometry N: 2

B7: RutR AcK21 (site-specifically K21-acetylated RutR) (natural protein, E. coli)
chain: T1 sequence with R7K, R11K
modifications: acetyl-lysine at 21
notes: RutR of Escherichia coli; rutR gene as in m1 with an amber stop codon at K21 for acetyl-L-lysine; Same rutR construct as m1 apart from the amber codon; constructs are in Supplementary Data 4; source: E. coli BL21 (DE3), genetic code expansion (acetyl-L-lysine at an amber codon), purified
[10]
  stoichiometry N: 2

B8: RutR AcK62 (site-specifically K62-acetylated RutR) (natural protein, E. coli)
chain: T1 sequence with R7K, R11K
modifications: acetyl-lysine at 62
notes: RutR of Escherichia coli; rutR gene as in m1 with an amber stop codon at K62 for acetyl-L-lysine; Same rutR construct as m1 apart from the amber codon; constructs are in Supplementary Data 4; source: E. coli BL21 (DE3), genetic code expansion (acetyl-L-lysine at an amber codon), purified
[10]
  stoichiometry N: 2

B9: RutR AcK150 (site-specifically K150-acetylated RutR) (natural protein, E. coli)
chain: T1 sequence with R7K, R11K
modifications: acetyl-lysine at 150
notes: RutR of Escherichia coli; rutR gene as in m1 with an amber stop codon at K150 for acetyl-L-lysine; Same rutR construct as m1 apart from the amber codon; constructs are in Supplementary Data 4; source: E. coli BL21 (DE3), genetic code expansion (acetyl-L-lysine at an amber codon), purified
[10]
  stoichiometry N: 2

B10: RutR AcK52 (site-specifically K52-acetylated RutR) (natural protein, E. coli)
chain: T1 sequence with R7K, R11K
modifications: acetyl-lysine at 52
notes: RutR of Escherichia coli; rutR gene as in m1 with an amber stop codon at K52 for acetyl-L-lysine; no electron density for the N-terminal 12 (chain A) or 11 (chain B) residues in the structure; Same rutR construct as m1 apart from the amber codon; constructs are in Supplementary Data 4; also called RutR AcK52•uracil; source: E. coli BL21 (DE3), genetic code expansion (acetyl-L-lysine at an amber …)
[10]
  stoichiometry N: 2

B11: RutR AcK7 (site-specifically K7-acetylated RutR) (natural protein, E. coli)
chain: T1 sequence with R7K, R11K
modifications: acetyl-lysine at 7
notes: RutR of Escherichia coli; rutR gene as in m1 with an amber stop codon at K7 for acetyl-L-lysine; Same rutR construct as m1 apart from the amber codon; constructs are in Supplementary Data 4; source: E. coli BL21 (DE3), genetic code expansion (acetyl-L-lysine at an amber codon), purified
[10]
  stoichiometry N: 2
